The text below walks through data of publication PMC8854993, “Acetylation at Lysine 86 of Escherichia coli HUβ Modulates the DNA-Binding Capability of the Protein” (Frontiers in Microbiology, 2021).

The chains are these.
B1: 30-bp duplex with 2-nt gap (dsDNA)
DNA 1: CCAACTTCCCTAACCCAGCTGCGATCCGTA
DNA 2: TACGGATCGCAGC
DNA 3: GGTTAGGGAAGTTGG
modifications: 2-nt gap in bottom strand
B2: Escherichia coli HUα (natural protein, E. coli, UniProt P0ACF0 1-90, looked up)
chain: MNKTQLIDVIAEKAELSKTQAKAALESTLAAITESLKEGDAVQLVGFGTFKVNHRAERTGRNPQTGKEIKIAAANVPAFVSGKALKDAVK
notes: hupA amplified from chromosomal DNA of E. coli BL21(DE3) with primers from the start codon to the last codon, followed by His6; No tag cleavage is described; the printed mass (10,357.5 Da observed, 10,357.8 Da calculated) appears to fit the whole protein with His6; also called HUα2 (homodimer); hupA-His6; source: E. coli BL21-AI, purified (Ni-NTA, cation exchange RESOURCE S)
B3: Escherichia coli HUβ (natural protein, E. coli, UniProt P0ACF4 1-90, looked up)
chain: MNKSQLIDKIAAGADISKAAAGRALDAIIASVTESLKEGDDVALVGFGTFAVKERAARTGRNPQTGKEITIAAAKVPSFRAGKALKDAVN
notes: hupB amplified from chromosomal DNA of E. coli BL21(DE3) with primers from the start codon to the last codon, followed by an XhoI site and His6; The reverse primer carries CTCGAG (XhoI) between hupB and the His codons, so Leu-Glu probably stands before His6; theoretical mass printed 10,290.7 Da; No tag cleavage is described; also called HUβ2 (homodimer); hupB-His6; source: E. coli BL21-AI, …
B4: Escherichia coli HUβ acetylated at Lys86 (natural protein, E. coli, UniProt P0ACF4 1-90, looked up)
chain: B3 chain
modifications: acetyl-lysine at 86
notes: from pBAD hupB(K86TAG)-His6, amber codon at Lys86 read as acetyl lysine; Same construct as m2 but with acetyl-lysine at 86; theoretical mass printed 10,332.7 Da; also called HUβ(K86ac); HUβ(K86ac)2 (homodimer)
B5: Escherichia coli HUβ acetylated at Lys67 (natural protein, E. coli, UniProt P0ACF4 1-90, looked up)
chain: B3 chain
modifications: acetyl-lysine at 67
notes: from pBAD hupB(K67TAG)-His6, amber codon at Lys67 read as acetyl lysine; Same construct as m2 but with acetyl-lysine at 67; theoretical mass printed 10,332.7 Da; also called HUβ(K67ac); HUβ(K67ac)2 (homodimer)

The target in one data set is T1, HUβ (Escherichia coli BL21(DE3), UniProt P0ACF4 1-90).
T1 sequence: B3 chain
Kind of data set: EMSA; homodimer; 30 mM Tris pH 7.5, 100 mM NaCl, 0.02% Tween20, 0.5 mg/ml BSA; 30-bp DNA 1 µM, 18°C 10 min, 10% PAGE in TBE; long DNA 250 ng in 15 µL, 37°C 1 h, 0.5% agarose in. As to conditions: protein: recombinant; tags: C-terminal 6xHis; chain copies: 2; three strands; 2-nt gap in bottom strand between S16 and S17; blunt outer ends. For orientation: A gel shift assay detects complexes by their altered migration in electrophoresis.

Data set [1] deals with the molecule itself. Kind of data set: SEC; analytical SEC, Agilent Bio SEC-3 column in PBS (10 mM NaPO pH 7.4, 154 mM NaCl), 0.6 mg/mL protein, 20 uL injected, 0.35 mL/min, detection at 214 nm, molecular weight estimated from a standard curve; heterodimers made by mixing purified homodimers 1:1 on ice for 5 min.
In the data set “Escherichia coli HUα” the target is B2. The description is as above. Conditions: both partners purified.

In general, stoichiometry N refers to a count of units in the complex or per binding partner.

Take B1: the binding result with HUβ is “binds”.

Turning to B2, the “stoichiometry N” value in data set [1] is 2.

Take B3: the binding result with Escherichia coli HUα is given as “binds”. Also, in data set [1], the “stoichiometry N” value is 2.

On to B4, for which, in the data set with Escherichia coli HUα, the binding result is “binds”. The “stoichiometry N” value in data set [1] was 2.

As to B5, the binding result with Escherichia coli HUα is “binds”. For the same molecule, in data set [1], the “stoichiometry N” value was 2.
